Where a chain is given by its changes, count along the chain named. Blank lines part the entries; values can stand above or below the binder they belong to.
Experiments:
[1] = target: T1, cynomolgus CD3 on HSC-F cells (cynomolgus, UniProt Q95LI5 22-198); assay: flow cytometry, yeast-produced IgG 100 nM on HSC-F cells, pH 6.0
T1 construct: whole, on cells; also called Cyno HSC-F; cynomolgus HSC-F cells
Experimental: (§1) Anti-CD3 antibodies Antibody Nos. 1-13 were produced as aglycosylated IgGs comprising a IgG1 Fc region in yeast cells. Binding to human or cynomolgus CD3-expressing cells (human CD3+ Jurkat cells or cynomolgus HSC-F cells, respectively) at pH 7.4 and pH 6.0 were measured by fluorescence-activated single cell sorting (FACS). Normalized cell binding (NCB) values were calculated based on median fluorescence intensity (MFI) values, CD3 negative Jurkat cells were used as a negative control.
(§2) Cell binding assay, CD3+ and CD3− human Jurkat cells (ATCC) and cynomolgus HSC-F cells (NIH) were thawed and washed with cold PBSF buffer, pH 7.4 (PBS+0.1% BSA, pH 7.4). About 200,000 cells were aliquoted per well of a 96-well plate (FACS Assay Plate VWR BD 353263) and pelleted by centrifugation (5 minutes at 500×g). The cells were washed with either PBSF pH 7.4 or PBSF pH 6.0 (PBS+0.1% BSA, pH 6.0), and then resuspended in 100 μl in either PBSF pH 7.4 or PBSF pH 6.0 with IgG antibody (100 nM) produced in yeast as described above. The mixture (cells+antibody) was incubated for 20 minutes on ice, then washed twice with either PBSF pH 7.4 or PBSF pH 6.0. Cells were resuspended in 50 μl of propidium iodide (Roche; 1:500 dilution) and anti-human IgG-RPE (Southern Biotech; 1:100 dilution) prepared in either PBSF pH 7.4 or PBSF pH 6.0, then incubated for 20 minutes on ice in the dark before cells were washed twice with either PBSF pH 7.4 or PBSF pH 6.0. Binding was analyzed on FACS Canto 11.

[2] = target: T1, cynomolgus CD3 on HSC-F cells; assay: flow cytometry, yeast-produced IgG 100 nM on HSC-F cells, pH 7.4
Experimental: as §1, §2

[3] = target: T2, human CD3 on CD3+ Jurkat cells (human, UniProt P07766 23-207); assay: flow cytometry, yeast-produced IgG 100 nM on CD3+ Jurkat cells, pH 6.0
T2 construct: whole, on cells; The whole CD3 complex stands on the cells; also called Human CD3 Jurkat; human CD3+ Jurkat cells
T2 sequence (P07766 23-207): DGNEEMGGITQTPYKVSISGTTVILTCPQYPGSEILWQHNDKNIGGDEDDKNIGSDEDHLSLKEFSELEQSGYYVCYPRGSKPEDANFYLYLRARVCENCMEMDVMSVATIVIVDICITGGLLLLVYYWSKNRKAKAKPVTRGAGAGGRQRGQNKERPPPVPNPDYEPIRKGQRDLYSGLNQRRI
Experimental: as §1, §2

[4] = target: T2, human CD3 on CD3+ Jurkat cells; assay: flow cytometry, yeast-produced IgG 100 nM on CD3+ Jurkat cells, pH 7.4
Experimental: as §1, §2

[5] = target: T3, cynomolgus CD3εδ-Fc heterodimer (Cy CD3ε Fc / CD3δ Fc-HIS) (cynomolgus, UniProt Q95LI8 22-100); assay: BLI (Octet), CHO-produced IgG on AHC sensor, CD3εδ-Fc 100 nM in solution, pH 6.0
T3 construct: range 22-100; Produced in HEK 293 cells; also called Cy CD3εδ Fc heterodimer; not shown: Fc-HIS part of CD3δ Fc-HIS
T3 sequence (chain, as listed by the source mutant, form in doubt, chain 1 of 2): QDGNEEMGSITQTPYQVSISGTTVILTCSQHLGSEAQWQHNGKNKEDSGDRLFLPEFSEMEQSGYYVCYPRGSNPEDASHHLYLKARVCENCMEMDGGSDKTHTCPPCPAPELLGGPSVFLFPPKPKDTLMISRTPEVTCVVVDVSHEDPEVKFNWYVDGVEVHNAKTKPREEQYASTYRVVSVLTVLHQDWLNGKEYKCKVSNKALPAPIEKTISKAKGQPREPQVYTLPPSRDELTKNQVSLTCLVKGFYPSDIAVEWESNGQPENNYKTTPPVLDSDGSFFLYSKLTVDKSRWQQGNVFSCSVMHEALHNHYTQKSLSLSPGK
T3 sequence (Q95LI8 22-100, stated change not applied, form in doubt, chain 2 of 2): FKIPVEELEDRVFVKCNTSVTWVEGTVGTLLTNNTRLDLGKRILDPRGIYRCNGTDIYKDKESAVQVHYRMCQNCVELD
Experimental: (§3) Anti-CD3 antibodies Antibody Nos. 1-13 were produced as human IgG1 antibodies in yeast or CHO cells. IgGs produced in yeast were aglycosylated, CHO) produced IgGs had standard CH2 glycosylation. Binding affinity to human or cynomolgus CD3εδ-Fc at pH 7.4 and pH 6.0 was measured via biolayer interferometry (BLI) using the ForteBio OCTET® HTX system and analyzed using the ForteBio software.
(§4) Kinetics were analyzed using the 1:1 binding model.

[6] = target: T3, cynomolgus CD3εδ-Fc heterodimer (Cy …); assay: BLI (Octet), CHO-produced IgG on AHC sensor, CD3εδ-Fc 100 nM in solution, pH 7.4
Experimental: as §3, §4

[7] = target: T4, human CD3εδ-Fc heterodimer (Hu CD3ε Fc / CD3δ Fc-HIS) (human, UniProt P04234 22-100); assay: BLI (Octet), yeast-produced IgG on AHC sensor, CD3εδ-Fc 100 nM in solution, pH 6.0
T4 construct: range 22-100; Produced in HEK 293 cells with a heterologous signal peptide; heterodimer purified by Ni Sepharose and Mono Q; also called Hu CD3εδ Fc heterodimer; CD3εδ Fc-HIS heterodimer; not shown: Fc-HIS part of CD3δ Fc-HIS
T4 sequence (chain, as listed by the source mutant, form in doubt, chain 1 of 2): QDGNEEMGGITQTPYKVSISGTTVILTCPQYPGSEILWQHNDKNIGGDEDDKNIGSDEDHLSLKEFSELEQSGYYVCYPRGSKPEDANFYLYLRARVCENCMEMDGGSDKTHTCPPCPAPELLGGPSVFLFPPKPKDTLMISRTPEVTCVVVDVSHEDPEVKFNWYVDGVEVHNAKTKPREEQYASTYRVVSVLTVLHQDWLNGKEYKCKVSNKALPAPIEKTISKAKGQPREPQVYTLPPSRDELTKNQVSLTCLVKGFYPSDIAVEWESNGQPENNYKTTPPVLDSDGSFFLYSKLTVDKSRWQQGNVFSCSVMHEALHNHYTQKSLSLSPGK
T4 sequence (P04234 22-100, stated change not applied, form in doubt, chain 2 of 2): as the sequence (Q95LI8 22-100, stated change not applied, form in doubt, chain 2 of 2) above, with V5I, K15N, V20I, T32S, N33D, N34I, A64T, N74S counted along it
Experimental: as §3, §4

[8] = target: T3, cynomolgus CD3εδ-Fc heterodimer (Cy …); assay: as above
Experimental: as §3, §4

[9] = target: T4, human CD3εδ-Fc heterodimer (Hu CD3ε Fc …); assay: BLI (Octet), yeast-produced IgG on AHC sensor, CD3εδ-Fc 100 nM in solution, pH 7.4
Experimental: as §3, §4

[10] = target: T3, cynomolgus CD3εδ-Fc heterodimer (Cy …); assay: as above
Experimental: as §3, §4

[11] = target: T4, human CD3εδ-Fc heterodimer (Hu CD3ε Fc …); assay: SPR (Biacore 8K), CHO-produced Fab, monovalent, pH 6.0
Experimental: (§5) Anti-CD3 antibodies (Antibody Nos. 1-13) were produced as human IgG1 antibodies in yeast or Chinese hamster ovary (CHO) cells, and Fab fragments were generated from the IgG1 antibodies by papain digestion and purified IgGs produced in yeast were aglycosylated. CHO produced IgGs had standard CH2 glycosylation. […] Monovalent binding affinity to human or cynomolgus CD3εδ-Fc at pH 7.4 and pH 6.0 were measured via surface plasmon resonance (SPR) using the BIACORE® 8K (Cytiva, previously GE Healthcare Life Sciences) system and analyzed using BIACORE® Evaluation Software.
(§6) BIACORE® KD measurements (surface plasmon resonance; SPR). BIACORE® affinity measurements were performed generally as previously described. Briefly, human CD3εδ-Fc heterodimer produced as described above was immobilized to a NiNTA sensor chip in a BIACORE® 8K (Cytiva, previously GE Healthcare Life Sciences) to a response level of ˜500 RUs. […] The sensor chip was doubly regenerated between cycles using 0.35 M EDTA and 0.1 M NaOH. The resulting data were double reference subtracted and fit to a 1:1 binding model using BIACORE® Evaluation Software.

[12] = target: T3, cynomolgus CD3εδ-Fc heterodimer (Cy …); assay: as above
Experimental: as §5, §6

[13] = target: T3, cynomolgus CD3εδ-Fc heterodimer (Cy …); assay: SPR (Biacore 8K), CHO-produced Fab, monovalent, pH 7.4
Experimental: as §5, §6

[14] = target: T4, human CD3εδ-Fc heterodimer (Hu CD3ε Fc …); assay: SPR (Biacore 8K), yeast-produced Fab, monovalent, pH 6.0
Experimental: as §5, §6

[15] = target: T4, human CD3εδ-Fc heterodimer (Hu CD3ε Fc …); assay: BLI (Octet), CD3εδ-Fc on AHC sensor, CHO-derived Fab 100 nM in solution, pH 6.0
[16] = target: T4, human CD3εδ-Fc heterodimer (Hu CD3ε Fc …); assay: SPR (Biacore 8K), CHO-produced Fab, monovalent, pH 7.4
Experimental: as §5, §6

[17] = target: T4, human CD3εδ-Fc heterodimer (Hu CD3ε Fc …); assay: SPR (Biacore 8K), yeast-produced Fab, monovalent, pH 7.4
Experimental: as §5, §6

[18] = target: T4, human CD3εδ-Fc heterodimer (Hu CD3ε Fc …); assay: BLI (Octet), CD3εδ-Fc on AHC sensor, CHO-derived Fab 100 nM in solution, pH 7.4

T1 sequence (Q95LI5 22-198): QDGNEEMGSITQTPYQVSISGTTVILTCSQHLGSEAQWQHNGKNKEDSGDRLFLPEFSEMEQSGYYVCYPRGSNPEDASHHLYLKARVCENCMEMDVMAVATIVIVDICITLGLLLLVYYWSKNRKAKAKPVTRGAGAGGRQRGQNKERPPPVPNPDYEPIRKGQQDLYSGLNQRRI

B1: ADI-26906 (Antibody No. 1), human IgG1 (antibody, V domains shown)
VH: QVQLVQSGAEVKKPGASVKVSCKASGFNIKDYYMHWVRQAPGQRLEWMGWIDLENANTIYDAKFQGRVTITRDTSASTAYMELSSLRSEDTAVYYCARDAYGRYFYDVWGQGTLVTVSS
VL: DIVMTQSPDSLAVSLGERATINCKSSQSLLNARTGKNYLAWYQQKPGQPPKLLIYWASTRESGVPDRFSGSGSGTDFTLTISSLQAEDVAVYYCKQSYSRRTFGGGTKVEIK
notes: Non-pH-dependent parent; Tested as human IgG1 (yeast-produced aglycosylated, or CHO-produced); also called Ab No. 1
- NCB [1]: 560
- NCB [2]: 167
- NCB [3]: 203
- NCB [4]: 149
- Kd [5]: 5.89 nM
- Kd [6]: 5.87 nM
- Kd [7]: 2.84 nM
- Kd [8]: 2.5 nM
- Kd [9]: 4.35 nM
- Kd [10]: 4.1 nM

B3: ADI-74968 (Antibody No. 6), human IgG1 (antibody, V domains shown)
VH: B1 VH with G102H
VL: B1 VL with K36H, R100H
notes: Tested as human IgG1 (yeast-produced aglycosylated, or CHO-produced)
- NCB [1]: 548
- NCB [2]: 106
- NCB [3]: 197
- NCB [4]: 62
- Kd [5]: 17 nM
- Kd [7]: 5.23 nM
- Kd [8]: 5.26 nM
- Kd [9]: 13 nM
- Kd [10]: 20.5 nM

B4: Fab of ADI-74967 (Antibody No. 5) (Fab, V domains shown)
VH: B1 VH with A100H, G102H
VL: B1 VL with D1G, Y98H, R100H
notes: Fab made by papain digestion of the human IgG1 (yeast- or CHO-produced); also called Antibody No. 5 Fab; ADI-74967 Fab
- Kd [11]: 8.16 nM
- Kd [12]: 11.6 nM
- Kd [16]: 55.5 nM
- Kd [13]: 73.7 nM
- Kd [14]: 8.45 nM
- Kd [15]: 24.9 nM

B5: Fab of ADI-26906 (Antibody No. 1) (Fab, V domains shown)
VH: B1 VH
VL: B1 VL
notes: Fab made by papain digestion of the human IgG1 (yeast- or CHO-produced); also called Antibody No. 1 Fab; ADI-26906 Fab
- Kd [11]: 1.25 nM
- Kd [12]: 1.9 nM
- Kd [16]: 1.09 nM
- Kd [13]: 1.09 nM
- Kd [14]: 1.9 nM
- Kd [17]: 2.4 nM
- Kd [15]: 5.81 nM
- Kd [18]: 6.03 nM

B6: Fab of ADI-74965 (Antibody No. 3) (Fab, V domains shown)
VH: B1 VH with G102H
VL: B1 VL with K36H, Y98H, R100H
notes: Fab made by papain digestion of the human IgG1 (yeast- or CHO-produced); also called Antibody No. 3 Fab; ADI-74965 Fab
- Kd [11]: 10.9 nM
- Kd [12]: 11.3 nM
- Kd [14]: 10.5 nM
- Kd [15]: 24.4 nM
- Kd [18]: 142 nM

B9: ADI-74967 (Antibody No. 5), human IgG1 (antibody, V domains shown)
VH: B1 VH with A100H, G102H
VL: B1 VL with D1G, Y98H, R100H
notes: as for B3
- NCB [1]: 512
- NCB [2]: 81
- NCB [3]: 185
- NCB [4]: 34
- Kd [5]: 37 nM
- Kd [7]: 5.94 nM
- Kd [8]: 7.38 nM
- Kd [9]: 14.5 nM
- Kd [10]: 21.9 nM

Now from value to binder:

- Kd [11]: 43.2 nM
- Kd [12]: 25.4 nM
- Kd [13]: 62.7 nM
- Kd [14]: 15.7 nM
- Kd [15]: 65.9 nM
B2: Fab of ADI-48587 (Antibody No. 2) (Fab, V domains shown)
VH: B1 VH with A100H, G102H
VL: B1 VL with K36H, Y98H, R100H
notes: Fab made by papain digestion of the human IgG1 (yeast- or CHO-produced); also called Antibody No. 2 Fab; ADI-48587 Fab

- Kd [11]: 6.37 nM
- Kd [12]: 6.18 nM
- Kd [16]: 47.5 nM
- Kd [13]: 46.5 nM
- Kd [14]: 6.07 nM
- Kd [15]: 14.8 nM
- Kd [18]: 69.3 nM
B7: Fab of ADI-74968 (Antibody No. 6) (Fab, V domains shown)
VH: B1 VH with G102H
VL: B1 VL with K36H, R100H
notes: Fab made by papain digestion of the human IgG1 (yeast- or CHO-produced); also called Antibody No. 6 Fab; ADI-74968 Fab

- NCB [1]: 551
- NCB [2]: 74
- NCB [3]: 181
- NCB [4]: 39
- Kd [5]: 33.5 nM
- Kd [7]: 6.68 nM
- Kd [8]: 6.56 nM
- Kd [9]: 13.7 nM
- Kd [10]: 21.8 nM
B8: ADI-74965 (Antibody No. 3), human IgG1 (antibody, V domains shown)
VH: B1 VH with G102H
VL: B1 VL with K36H, Y98H, R100H
notes: as for B3
